Assay results as given in the Human Domainome abundance scans (Beltran et al. 2025).

B1: Tumor protein p73, residues 487 to 549; numbered along this chain, O15350 (parent)
chain: YHADPSLVSFLTGLGCPNCIEYFTSQGLQSIYHLQNLTIEDLGALKIPEQYRMTIWRGLQDLK

Variants of: B1
Assay: abundance fitness (aPCA) (normalised: wild type 0, dead -1); higher = more abundant; growth selection in yeast, the domain comes from the species named
Conditions: Homo sapiens

Abundance fitness: each site, then its substitutions
K46: F -0.142 | I -0.345 | D -0.138 | Y -0.301 | V -0.092 | S -0.043 | G 0.025 | R 0.041 | P 0.01 | L -0.069 | T -0.102 | N 0.009 | C -0.08 | E -0.127 | M -0.155 | W -0.249
W56: I 0.086 | S 0.011 | K -0.106 | A 0.014 | R -0.163 | Q 0.035 | M -0.049 | F 0.075 | V -0.048 | C -0.124 | E -0.047 | T 0.082 | D -0.241 | P -0.893 | G -0.128 | Y 0.037 | N -0.137 | L 0.017
L42: R -0.733 | P -0.696 | T -0.45 | V -0.127 | Y -0.02 | W 0.072 | S -0.785 | Q -0.512
L45: I 0.067 | M 0.023 | H -0.45 | R -0.241 | K -0.216 | C -0.016 | E -0.553 | G -0.517 | Q -0.518 | Y 0.04 | T -0.076 | S -0.272 | W -0.345 | N -0.224 | A -0.18 | D -0.609
T54: M -0.116 | V 0.088 | Q 0.028 | W -0.142 | C -0.13 | G -0.074 | Y -0.189 | I 0.025 | L -0.01 | E -0.061 | S -0.042 | A -0.034 | K 0.06 | R 0.02 | D -0.01 | F -0.362 | H 0.071
R52: L 0.004 | M -0.146 | G -0.114 | S -0.066 | W -0.082 | P -0.755 | D -0.425 | Y 0.095 | T 0.009 | C -0.131 | H 0.054 | I 0.2 | F -0.53 | Q -0.019 | E -0.075
M53: L 0.021 | R 0.027 | W -0.04 | S 0.008 | A -0.025 | Y -0.302 | T 0.009 | P -0.051 | D 0.019 | V -0.061 | F -0.123 | N 0.01 | G -0.025 | H 0.108 | K -0.033 | I -0.072
I55: L -0.091 | P -1.08 | F -0.601 | C -0.459 | W -0.923 | E -0.869 | T -0.598 | S -0.881 | Q -0.5 | R -0.807 | A -0.918 | M -0.241 | K -1.01 | N -0.559 | V -0.041
R57: C -0.192 | A -0.068 | W -0.114 | E -0.058 | Y -0.023 | L -0.069 | I -0.24 | Q -0.036 | N -0.134 | V -0.255 | D 0.011 | P -0.625 | H 0.012 | G -0.01 | T 0.024 | F 0.311 | S -0.114 | K -0.011
Q60: I 0.034 | Y 0.06 | W -0.068 | G -0.027 | S 0.018 | N 0.089 | L -0.013 | M 0.031 | C -0.102 | F -0.096 | H -0.246 | V -0.041 | A 0.047 | T -0.017 | K 0.117 | P -0.388 | E 0.101 | D -0.01
I47: W -0.925 | P -1.07 | T -0.431 | D -0.477 | N -0.413 | L 0.021 | F -0.263 | K -0.929 | Y -0.824 | Q -0.985
